Legend:
Details in all cases: one partner purified
tetanus toxoid [1] = biological target: tetanus toxoid (Clostridium tetani, strain  …, UniProt P04958); experiment: SPR
Target sequence in this assay (P04958 whole entry): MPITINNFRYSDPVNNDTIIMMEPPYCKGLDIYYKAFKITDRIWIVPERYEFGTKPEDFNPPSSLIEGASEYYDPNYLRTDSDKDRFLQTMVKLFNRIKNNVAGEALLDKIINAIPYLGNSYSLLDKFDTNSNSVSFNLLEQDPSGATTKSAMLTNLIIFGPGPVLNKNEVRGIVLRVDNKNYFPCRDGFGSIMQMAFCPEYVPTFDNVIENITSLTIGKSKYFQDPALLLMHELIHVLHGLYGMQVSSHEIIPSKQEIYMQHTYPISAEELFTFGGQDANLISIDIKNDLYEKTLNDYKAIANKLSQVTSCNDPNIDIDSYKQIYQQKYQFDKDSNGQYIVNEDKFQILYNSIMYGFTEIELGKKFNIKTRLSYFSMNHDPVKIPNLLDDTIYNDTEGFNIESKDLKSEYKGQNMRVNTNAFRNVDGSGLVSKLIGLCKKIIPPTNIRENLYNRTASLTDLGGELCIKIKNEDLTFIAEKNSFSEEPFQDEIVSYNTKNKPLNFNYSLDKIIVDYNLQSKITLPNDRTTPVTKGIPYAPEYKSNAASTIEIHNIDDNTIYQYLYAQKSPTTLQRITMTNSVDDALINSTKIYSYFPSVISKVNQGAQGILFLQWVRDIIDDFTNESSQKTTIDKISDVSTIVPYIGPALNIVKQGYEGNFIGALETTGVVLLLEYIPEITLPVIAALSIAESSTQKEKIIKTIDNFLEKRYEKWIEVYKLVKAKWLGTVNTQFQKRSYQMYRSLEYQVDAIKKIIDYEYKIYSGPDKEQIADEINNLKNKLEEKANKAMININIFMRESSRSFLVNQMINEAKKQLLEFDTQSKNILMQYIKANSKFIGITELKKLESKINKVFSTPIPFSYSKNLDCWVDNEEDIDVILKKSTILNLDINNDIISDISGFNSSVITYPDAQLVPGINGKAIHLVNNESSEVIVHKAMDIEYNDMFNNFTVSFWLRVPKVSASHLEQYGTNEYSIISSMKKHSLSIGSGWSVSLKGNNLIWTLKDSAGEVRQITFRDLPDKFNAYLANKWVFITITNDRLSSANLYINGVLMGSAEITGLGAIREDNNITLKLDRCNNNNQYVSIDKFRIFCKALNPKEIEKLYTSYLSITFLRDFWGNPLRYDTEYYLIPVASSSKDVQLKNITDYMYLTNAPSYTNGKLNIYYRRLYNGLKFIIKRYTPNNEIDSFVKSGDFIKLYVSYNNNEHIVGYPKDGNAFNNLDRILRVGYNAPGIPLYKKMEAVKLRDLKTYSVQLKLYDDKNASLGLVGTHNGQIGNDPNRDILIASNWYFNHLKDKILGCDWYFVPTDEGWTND

tetanus toxoid [2] = biological target: T1, tetanus toxoid (Clostridium tetani, strain  …, UniProt P04958); experiment: ELISA
T1 sequence (P04958 1-457, chain 1 of 2): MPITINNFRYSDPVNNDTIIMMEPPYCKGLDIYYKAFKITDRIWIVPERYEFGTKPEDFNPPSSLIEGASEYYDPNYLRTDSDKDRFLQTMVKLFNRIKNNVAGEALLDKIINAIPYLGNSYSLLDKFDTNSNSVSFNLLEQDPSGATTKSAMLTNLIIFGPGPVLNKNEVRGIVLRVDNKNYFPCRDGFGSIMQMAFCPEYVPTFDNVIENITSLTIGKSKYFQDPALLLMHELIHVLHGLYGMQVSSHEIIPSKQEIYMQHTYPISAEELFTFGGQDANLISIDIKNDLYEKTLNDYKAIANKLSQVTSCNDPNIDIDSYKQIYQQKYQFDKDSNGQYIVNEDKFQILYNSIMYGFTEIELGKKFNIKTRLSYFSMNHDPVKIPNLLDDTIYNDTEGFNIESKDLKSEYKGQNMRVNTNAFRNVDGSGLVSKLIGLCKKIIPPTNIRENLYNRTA
T1 sequence (P04958 458-1315, chain 2 of 2): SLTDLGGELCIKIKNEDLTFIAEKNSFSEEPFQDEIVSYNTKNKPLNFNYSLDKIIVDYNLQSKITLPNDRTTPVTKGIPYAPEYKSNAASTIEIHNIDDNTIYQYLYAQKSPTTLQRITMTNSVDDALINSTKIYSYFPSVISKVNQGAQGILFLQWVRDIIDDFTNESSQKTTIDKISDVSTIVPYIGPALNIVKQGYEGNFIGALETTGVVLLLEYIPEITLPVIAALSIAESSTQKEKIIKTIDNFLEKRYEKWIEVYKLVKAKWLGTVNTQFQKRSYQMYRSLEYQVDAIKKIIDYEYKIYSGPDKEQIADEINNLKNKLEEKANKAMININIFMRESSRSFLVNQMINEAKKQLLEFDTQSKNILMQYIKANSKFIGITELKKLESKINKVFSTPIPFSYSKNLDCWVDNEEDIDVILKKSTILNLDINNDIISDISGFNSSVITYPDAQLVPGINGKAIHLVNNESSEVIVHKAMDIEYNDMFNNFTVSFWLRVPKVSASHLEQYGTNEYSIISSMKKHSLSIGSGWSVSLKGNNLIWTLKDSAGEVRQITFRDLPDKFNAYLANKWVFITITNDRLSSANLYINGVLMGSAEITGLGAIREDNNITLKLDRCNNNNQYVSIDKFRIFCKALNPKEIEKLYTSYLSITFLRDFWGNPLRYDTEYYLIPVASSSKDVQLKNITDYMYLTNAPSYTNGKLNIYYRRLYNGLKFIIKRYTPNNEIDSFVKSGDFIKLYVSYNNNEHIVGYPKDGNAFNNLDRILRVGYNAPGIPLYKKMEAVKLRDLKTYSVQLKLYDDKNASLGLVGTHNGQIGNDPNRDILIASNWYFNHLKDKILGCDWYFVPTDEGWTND

tetanus toxoid [3] = biological target: T1, tetanus toxoid; experiment: SPR; remark: listed apart in the source

B1: TT-specific Fab D5O 94 from the phage display library (Fab, V domains shown)
VH: LVKPGASVKIPCKASGYTFTDYNIDWVKQSHGKSLEWIGDINPNNGGTIYNQKFKDKATLTVDKSSSTAYMELRSLTSEDTAVYYCARDFYYGRYFDYWGQGTTLTVSS
VL: TMAASPGEKITITCSATSSISSNYLHWYQQKPGFSPKLLIYRTSNLASGVPARFSGSGSGTSYSLTIGTMEAEDVATYYCQQGSNIPTFGSGTKLELK
Kd (tetanus toxoid [1]): 4.8 nM | koff (tetanus toxoid [1]): 0.00037 s⁻¹ | kon (tetanus toxoid [1]): 78000 M⁻¹ s⁻¹

B2: phage display isolate S546 (Fab, V domains shown)
VH: LVAPSQSLSITCTVSGFSLTSYGVHWVRQPPGKGLEWLGVIWPGGSTNYNSALMSRLSISKDNSKSQVFLKMNSLQTDDTAMYYCARDFQYGNYFDYWGQGTTLTVSS
VL: TMAASPGEKITITCSASSSISSNYLHWYQQKPGFSPKLLIYRTSNLASGVPTRFSGSGSGTSYSLTIGTMEAEDVATYYCQQGSSISTFGAGTKLELK
binding result (tetanus toxoid [2]): binds

B3: anti-TT mAb of hybridoma 24 (antibody, V domains shown)
VH: VQLQQTGPGLVQPSQSLSITCTVSAFSLTNYGIHWVRQSPGKGLEWLGVIWTGGSTDYNAPFISRLSISKDNSKSQVFFKMNSLQANDTAIYYCVRDGYRVMDYWGQGTSVTVSS
VL: LSASVGETVTITCRASGNIHNYLAWYQQKQGKSPQLLVYNAKTLTDGVPSRFSGSGSGTQHSLKINSLQPEDFGSYYCQHFWTIPWTFGGGTKLEIK
Kd (tetanus toxoid [3]): 1.9 nM | koff (tetanus toxoid [3]): 0.00016 s⁻¹ | kon (tetanus toxoid [3]): 86000 M⁻¹ s⁻¹

B4: anti-TT mAb of hybridoma 14 (antibody, V domains shown)
VH: VQLQESGPGLVAPSQSLSITCTVSGFSLTSYGVHWVRQPPGKGLEWLGVIWPGGSTNYNSALMSRLSISQDNSKSQVFLKMNSLQIDDTAMYHCARDFQYGNYFDYWGQGTSLTVSS
VL: MPASPGEKITITCSASSSISSNYLHWYQQKPGFSPKLLIYRTSNLASGVPARFSGSGSGTSYSLTVGTMEAEDVATYYCQQGTSIPTFGAGTKLELK
Kd (tetanus toxoid [3]): 3.1 nM | koff (tetanus toxoid [3]): 0.00029 s⁻¹ | kon (tetanus toxoid [3]): 94000 M⁻¹ s⁻¹

B5: phage display isolate S917 (Fab, V domains shown)
VH: LVKPGGSLKLSCAVSGFNFSNYAMSWVRQTPEKRLEWVATISSGGSYIYYPDSVKGRFTISRDNAKNTLYLQMSSLRSEDTAMYYCARQDRYGFALDYWGQGTSVTVSS
VL: SLSASLGDRVTISCRASQDINNYLNWYQQKPDGTIRLLIYYTSRLHSGVPSRFSGSGSGTDYSLTITNLEQEDFATYFCQQGNTLPWAFGGGTKLEIK
binding result (tetanus toxoid [2]): binds

B6: TT-specific Fab S10 from the phage display library (Fab, V domains shown)
VH: LVAPSQSLSITCTVSGFSLTDYGVNWVRQPPGKGLEWLGMIWGDGSTDYNSALKSRLSISKDNSKSQVFLKMNSLQTDDTARYFCVRTFHYGNYFDYWGQGTTLTVSS
VL: TMAASPGEKITITCSASSSISSNYLHWYQQKPGFSPKLLIYRTSNLASGVPARFSGSGSGTSYSLTIGTMEAEDVATYYCQQGSSIPLTFGAGTKLELK
Kd (tetanus toxoid [1]): 12 nM | koff (tetanus toxoid [1]): 0.00032 s⁻¹ | kon (tetanus toxoid [1]): 26000 M⁻¹ s⁻¹

B7: anti-TT mAb of hybridoma P4T29115 (antibody, V domains shown)
VH: EVKLVESGGGLVKPGGSLKLSCAASGITFSNYAMSWVRQTPEKRLEWVATISSGGSYIYYPDSVKGRFTISRDNAKNTLYLQMSSLRSEDTAVYFCARLGYDGVALDYWGQGTSVTVSS
VL: ASLGDRVSISCRASQDIRNYLNWYQQRPDGTVKLLIYYTSRLHSGVPSRFSGSGSGTDYSLTISNLEQEDIATYFCQQGNTFPWTFGGGTKLEIK
binding result (tetanus toxoid [2]): binds

Reference: publication PMC4182348 (PLoS ONE, 2014)
